The record followed here is patent US20260116951A1 (DUCENTIS BIOTHERAPEUTICS, published 2026).

The target of this experiment is T1, Human CD200R, full length, on transduced U937 cells (U937-CD200R) (human, UniProt Q8TD46 25-348).
T1 sequence (looked up): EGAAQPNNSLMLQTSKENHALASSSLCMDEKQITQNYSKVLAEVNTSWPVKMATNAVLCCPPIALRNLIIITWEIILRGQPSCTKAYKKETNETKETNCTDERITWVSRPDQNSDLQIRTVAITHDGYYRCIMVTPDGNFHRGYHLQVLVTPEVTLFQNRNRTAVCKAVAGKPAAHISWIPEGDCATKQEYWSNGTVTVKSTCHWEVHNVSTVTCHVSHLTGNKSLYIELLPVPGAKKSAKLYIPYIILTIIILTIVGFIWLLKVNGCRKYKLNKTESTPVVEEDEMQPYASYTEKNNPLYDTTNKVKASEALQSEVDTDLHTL
Nature of the experiment: cell-based or functional assay.

B1: DS-118 (mutated human CD200-Fc fusion protein, K130Y, I131Y, IgG4 S228P Fc) (Fc fusion)
chain: QVQVVTQDEREQLYTPASLKCSLQNAQEALIVTWQKKKAVSPENMVTFSENHGVVIQPAYKDKINITQLGLQNSTITFWNITLEDEGCYMCLFNTFGFGYYSGTACLTVYVQPIVSLHYKFSEDHLNITCSATARPAPMVFWKVPRSGIENSTVTLSHPNGTTSVTSILHIKDPKNQVGKEVICQVLHLGTVTDFKQTVNKGPPCPPCPAPEFLGGPSVFLFPPKPKDTLMISRTPEVTCVVVDVSQEDPEVQFNWYVDGVEVHNAKTKPREEQFNSTYRVVSVLTVLHQDWLNGKEYKCKVSNKGLPSSIEKTISKAKGQPREPQVYTLPPSQEEMTKNQVSLTCLVKGFYPSDIAVEWESNGQPENNYKTTPPVLDSDGSFFLYSRLTVDKSRWQEGNVFSCSVMHEALHNHYTQKSLSLSLGK
notes: also called mutated CD200-Fc; mutant CD200-Fc
For the molecule B1, the “inhibition of LPS stimulated IL-6 release from U937-CD200R cells, IC50” value came out at 0.01 mg/L.
